The values below come from IntAct's records for PubMed 29039417.

To fix the notation:
B1: Isoform 2 of Bardet-Biedl syndrome 7 protein (Homo sapiens), Q8IWZ6-2 (parent)
chain: MDLILNRMDYLQVGVTSQKTMKLIPASRHRATQKVVIGDHDGVVMCFGMKKGEAAAVFKTLPGPKIARLELGGVINTPQEKIFIAAASEIRGFTKRGKQFLSFETNLTESIKAMHISGSDLFLSASYIYNHYCDCKDQHYYLSGDKINDVICLPVERLSRITPVLACQDRVLRVLQGSDVMYAVEVPGPPTVLALHNGNGGDSGEDLLFGTSDGKLALIQITTSKPVRKWEIQNEKKRGGILCIDSFDIVGDGVKDLLVGRDDGMVEVYSFDNANEPVLRFDQMLSESVTSIQGGCVGKDSYDEIVVSTYSGWVTGLTTEPIHKESGPGEELKINQEMQNKISSLRNELEHLQYKVLQERENYQQSSQSSKAKSAVPSFGINDKFTLNKDDASYSLILEVQTAIDNVLIQSDVPIDLLDVDKNSAVVSFSSCDSESNDNFLLATYRCQADTTRLELKIRSIEGQYGTLQAYVTPRIQPKTCQVRQYHIKPLSLHQRTHFIDHDRPMNTLTLTGQFSFAEVHSWVVFCLPEVPEKPPAGECVTFYFQNTFLDTQLESTYRKGEGVFKSDNISTISILKDVLSKEATKRKINLNISYEINEVSVKHTLKLIHPKLEYQLLLAKKVQLIDALKELQIHEGNTNFLIPEYHCILEEADHLQEEYKKQPAHLERLYG
partner: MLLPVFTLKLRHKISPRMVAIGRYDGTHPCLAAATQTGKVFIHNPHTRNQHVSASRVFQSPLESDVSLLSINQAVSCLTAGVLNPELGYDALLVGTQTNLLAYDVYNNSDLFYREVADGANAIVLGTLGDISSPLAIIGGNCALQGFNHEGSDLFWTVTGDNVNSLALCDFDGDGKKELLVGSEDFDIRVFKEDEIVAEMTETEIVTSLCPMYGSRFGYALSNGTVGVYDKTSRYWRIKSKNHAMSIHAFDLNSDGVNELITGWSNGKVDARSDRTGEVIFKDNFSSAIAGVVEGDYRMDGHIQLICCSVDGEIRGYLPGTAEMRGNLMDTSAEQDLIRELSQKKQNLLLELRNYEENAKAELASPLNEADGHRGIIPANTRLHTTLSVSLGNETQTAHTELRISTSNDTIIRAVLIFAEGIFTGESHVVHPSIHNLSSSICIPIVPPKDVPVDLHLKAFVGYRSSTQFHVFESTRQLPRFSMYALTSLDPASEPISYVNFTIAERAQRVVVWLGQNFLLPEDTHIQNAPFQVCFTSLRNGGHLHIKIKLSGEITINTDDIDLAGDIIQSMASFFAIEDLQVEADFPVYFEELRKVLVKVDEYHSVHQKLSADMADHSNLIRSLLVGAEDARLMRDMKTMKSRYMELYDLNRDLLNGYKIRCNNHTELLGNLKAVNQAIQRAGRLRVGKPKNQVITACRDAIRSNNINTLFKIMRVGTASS

This experiment covers variants of B1. To be noted: with bbs2_human BBS2, Q9BXC9.
For the variant Y595E, the “effect of a mutation on the interaction” value is reported as “with no effect”.

In the case of Y595K, the “effect of a mutation on the interaction” value is given as “with no effect”.

Y595A: the “effect of a mutation on the interaction” value is recorded as “with no effect”.

With L550E, the “effect of a mutation on the interaction” value is “with no effect”.

For L550K, the “effect of a mutation on the interaction” value was “with no effect”.

For the variant L550A, the “effect of a mutation on the interaction” value was “with no effect”.

For the variant F545A, the “effect of a mutation on the interaction” value is given as “with no effect”.

Turning to F545E, the “effect of a mutation on the interaction” value is on record as “with no effect”.

As to F545K, the “effect of a mutation on the interaction” value is recorded as “with no effect”.

In the case of A537K, the “effect of a mutation on the interaction” value is listed as “with no effect”.

With A537E, the “effect of a mutation on the interaction” value is given as “with no effect”.

In the case of S594A, the “effect of a mutation on the interaction” value is reported as “with no effect”.

As to S594K, the “effect of a mutation on the interaction” value was “with no effect”.

Regarding S594E, the “effect of a mutation on the interaction” value was “with no effect”.

Consider K534E, for which the “effect of a mutation on the interaction” value is reported as “with no effect”.

With K582E, the “effect of a mutation on the interaction” value was “with no effect”.

On to K582A, for which the “effect of a mutation on the interaction” value is “with no effect”.

For the variant G563E, the “effect of a mutation on the interaction” value was “with no effect”.

On to G563K, for which the “effect of a mutation on the interaction” value is listed as “with no effect”.

On to G563A, for which the “effect of a mutation on the interaction” value is “with no effect”.

For G563R, the “effect of a mutation on the interaction” value is “disrupting interaction strength”.

Take S581K: the “effect of a mutation on the interaction” value is “with no effect”.

For the variant S581E, the “effect of a mutation on the interaction” value is reported as “with no effect”.

As to S581A, the “effect of a mutation on the interaction” value is listed as “with no effect”.

Consider L576A, for which the “effect of a mutation on the interaction” value is listed as “with no effect”.

L576K: the “effect of a mutation on the interaction” value is on record as “with no effect”.

Turning to L576E, the “effect of a mutation on the interaction” value is “with no effect”.

With N590A, the “effect of a mutation on the interaction” value is “with no effect”.

Consider N590E, for which the “effect of a mutation on the interaction” value is reported as “with no effect”.

Regarding N590K, the “effect of a mutation on the interaction” value is “with no effect”.

Regarding A584K, the “effect of a mutation on the interaction” value is “with no effect”.

Consider A584E, for which the “effect of a mutation on the interaction” value is recorded as “with no effect”.

For D551A, the “effect of a mutation on the interaction” value is reported as “with no effect”.

On to D551K, for which the “effect of a mutation on the interaction” value is “with no effect”.

For the variant D551E, the “effect of a mutation on the interaction” value is recorded as “with no effect”.

In the case of L580A, the “effect of a mutation on the interaction” value is “with no effect”.

For L580K, the “effect of a mutation on the interaction” value is listed as “with no effect”.

For the variant L580E, the “effect of a mutation on the interaction” value is “with no effect”.

With R559K, the “effect of a mutation on the interaction” value is “with no effect”.

In the case of R559A, the “effect of a mutation on the interaction” value was “with no effect”.

As for R559E, the “effect of a mutation on the interaction” value was “with no effect”.

As to V564A, the “effect of a mutation on the interaction” value is “with no effect”.

As to V564K, the “effect of a mutation on the interaction” value is on record as “with no effect”.

Regarding V564E, the “effect of a mutation on the interaction” value is “with no effect”.

Consider I573E, for which the “effect of a mutation on the interaction” value is reported as “with no effect”.

With I573A, the “effect of a mutation on the interaction” value is on record as “with no effect”.

With I573K, the “effect of a mutation on the interaction” value was “with no effect”.

With T557K, the “effect of a mutation on the interaction” value is on record as “with no effect”.

Turning to T557E, the “effect of a mutation on the interaction” value was “with no effect”.

In the case of T557A, the “effect of a mutation on the interaction” value is on record as “with no effect”.

Consider G561E, for which the “effect of a mutation on the interaction” value is listed as “with no effect”.

For G561S, the “effect of a mutation on the interaction” value is listed as “disrupting interaction strength”.

In the case of G561R, the “effect of a mutation on the interaction” value is reported as “disrupting interaction strength”.

Turning to G561A, the “effect of a mutation on the interaction” value is given as “with no effect”.

G561K: the “effect of a mutation on the interaction” value was “with no effect”.

As for E596A, the “effect of a mutation on the interaction” value is given as “with no effect”.

As to E596K, the “effect of a mutation on the interaction” value was “with no effect”.

Take Y558E: the “effect of a mutation on the interaction” value was “with no effect”.

On to Y558K, for which the “effect of a mutation on the interaction” value is listed as “with no effect”.

As to Y558A, the “effect of a mutation on the interaction” value is listed as “with no effect”.

S556K: the “effect of a mutation on the interaction” value is listed as “with no effect”.

As to S556E, the “effect of a mutation on the interaction” value is listed as “with no effect”.

Regarding S556A, the “effect of a mutation on the interaction” value is listed as “with no effect”.

For the variant I589E, the “effect of a mutation on the interaction” value is given as “with no effect”.

For the variant I589K, the “effect of a mutation on the interaction” value is reported as “with no effect”.

Turning to I589A, the “effect of a mutation on the interaction” value is listed as “with no effect”.

F565E: the “effect of a mutation on the interaction” value is given as “with no effect”.

F565K: the “effect of a mutation on the interaction” value was “with no effect”.

As for F565A, the “effect of a mutation on the interaction” value is “with no effect”.

Turning to K577A, the “effect of a mutation on the interaction” value was “with no effect”.

As to K577E, the “effect of a mutation on the interaction” value is on record as “with no effect”.

As to L554K, the “effect of a mutation on the interaction” value is listed as “with no effect”.

For L554E, the “effect of a mutation on the interaction” value was “with no effect”.

On to L554A, for which the “effect of a mutation on the interaction” value is recorded as “with no effect”.

As to F543E, the “effect of a mutation on the interaction” value is listed as “with no effect”.

For F543A, the “effect of a mutation on the interaction” value is “with no effect”.

For the variant F543K, the “effect of a mutation on the interaction” value is given as “with no effect”.

Take P535E: the “effect of a mutation on the interaction” value is recorded as “with no effect”.

Consider P535K, for which the “effect of a mutation on the interaction” value was “with no effect”.

On to P535A, for which the “effect of a mutation on the interaction” value is listed as “with no effect”.

Consider T542A, for which the “effect of a mutation on the interaction” value is recorded as “with no effect”.

T542K: the “effect of a mutation on the interaction” value was “with no effect”.

Consider T542E, for which the “effect of a mutation on the interaction” value is recorded as “with no effect”.

With T572K, the “effect of a mutation on the interaction” value is given as “with no effect”.

For the variant T572A, the “effect of a mutation on the interaction” value is “with no effect”.

For the variant T572E, the “effect of a mutation on the interaction” value is “with no effect”.

Consider S574E, for which the “effect of a mutation on the interaction” value is recorded as “with no effect”.

S574A: the “effect of a mutation on the interaction” value is “with no effect”.

For the variant S574K, the “effect of a mutation on the interaction” value is “with no effect”.

For I597K, the “effect of a mutation on the interaction” value is given as “with no effect”.

Regarding I597E, the “effect of a mutation on the interaction” value is “with no effect”.

Take I597A: the “effect of a mutation on the interaction” value is recorded as “with no effect”.
